Test results from paper doi:10.1101/2024.09.23.614597.

Molecular target: PelC lipoprotein (P. aeruginosa)
Experiment: cryo-EM structure

## PelC lipoprotein (natural protein)
  stoichiometry N: 12 subunits
